Here are results for four molecules from PMC10140304, “Flagellar brake protein YcgR interacts with motor proteins MotA and FliG to regulate the flagellar rotation speed and direction” (Frontiers in Microbiology, 2023).

Substitutions are numbered along the chain they refer to. Names and notes keep the numbering of the source.

To fix the notation:
T1: FliG (E. coli MG1655, UniProt P0ABZ1 1-331)
T1 construct: Flagellar motor switch (rotor) protein FliG, E. coli MG1655; also called individual FliG; rotor protein FliG; source: E. coli BL21 (DE3), purified following Hou et al., 2020
T1 sequence (looked up): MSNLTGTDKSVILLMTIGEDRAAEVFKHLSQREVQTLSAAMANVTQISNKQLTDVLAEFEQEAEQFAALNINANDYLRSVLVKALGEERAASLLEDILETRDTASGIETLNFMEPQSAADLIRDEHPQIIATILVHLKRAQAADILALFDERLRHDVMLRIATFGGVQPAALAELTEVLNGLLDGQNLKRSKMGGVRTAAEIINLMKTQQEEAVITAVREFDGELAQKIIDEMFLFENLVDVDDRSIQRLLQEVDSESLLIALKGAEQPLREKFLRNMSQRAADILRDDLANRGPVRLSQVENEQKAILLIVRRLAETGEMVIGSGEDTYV

T2: mYPet-YcgR-mCyPet (YcgR-biosensor), wild-type E. coli YcgR (E. coli MG1655), P76010
T2 chain: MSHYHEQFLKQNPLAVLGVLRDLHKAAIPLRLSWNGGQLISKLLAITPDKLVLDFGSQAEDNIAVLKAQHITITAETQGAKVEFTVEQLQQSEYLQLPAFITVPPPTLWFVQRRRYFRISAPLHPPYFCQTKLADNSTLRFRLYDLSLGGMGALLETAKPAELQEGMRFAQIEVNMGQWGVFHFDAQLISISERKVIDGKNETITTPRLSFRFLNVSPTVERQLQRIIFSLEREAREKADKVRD

B1: mYPet-YcgR(Q38A/D54A/N62A)-mCyPet mutant biosensor (natural protein, E. coli MG1655, UniProt P76010 1-244, looked up)
chain: T2 chain with Q38A, D54A, N62A
notes: Flagellar brake protein YcgR, E. coli MG1655, triple mutant Q38A/D54A/N62A, between YPet (A206K) and CyPet (A206K); Printed both as QDN/AAA and QND/AAA; also called QDN/AAA; QND/AAA biosensor; source: E. coli BL21 (DE3), purified following Hou et al., 2020; not shown: mYPet (YPet A206K), N-terminal, kept; mCyPet (CyPet A206K), C-terminal, kept
B2: mYPet-YcgR(D54A)-mCyPet mutant biosensor (natural protein, E. coli MG1655, UniProt P76010 1-244, looked up)
chain: T2 chain with D54A
notes: Flagellar brake protein YcgR, E. coli MG1655, mutant D54A, between YPet (A206K) and CyPet (A206K); also called YcgR biosensor mutant D54A; source: E. coli BL21 (DE3), purified following Hou et al., 2020; not shown: mYPet (YPet A206K), N-terminal, kept; mCyPet (CyPet A206K), C-terminal, kept
B3: mYPet-YcgR-mCyPet (YcgR-biosensor), wild-type E. coli YcgR (natural protein, E. coli MG1655, UniProt P76010 1-244, looked up)
chain: T2 chain
notes: Flagellar brake protein YcgR, E. coli MG1655, cloned between YPet (A206K) and CyPet (A206K) in an engineered pET15b; YFP and CFP report FRET within one chain; also called YcgR-FRET; FRET-based YcgR biosensor; source: E. coli BL21 (DE3), purified following Hou et al., 2020; not shown: mYPet (YPet A206K), N-terminal, kept; mCyPet (CyPet A206K), C-terminal, kept
B4: MotAc, cytoplasmic domain of MotA (residues 70-170 of MotA) (domain or fragment, E. coli MG1655, UniProt P09348 70-170, looked up)
chain: YTKAMYMDLLALLYRLMAKSRQMGMFSLERDIENPRESEIFASYPRILADSVMLDFIVDYLRLIISGHMNTFEIEALMDEEIETHESEAEVPANSLALVGD
notes: Flagellar stator protein MotA, E. coli MG1655, cytoplasmic domain, residues 70-170; source: E. coli BL21 (DE3), purified following Hou et al., 2020

Assay [1] addresses T1, FliG. In words: FRET or BRET; in vitro, intramolecular FRET of 1.5 uM YcgR biosensor (mYPet-YcgR-mCyPet) titrated with 0-500 uM motor protein, without c-di-GMP; 25 C, SEC buffer (20 mM HEPES pH 7.5, 150 mM NaCl, 10% glycerol); FRET/CFP ratio fitted to a logistic equation. To be noted: both partners purified.
Assay [2] deals with T1, FliG. The assay is described as follows: FRET or BRET; in vitro, intramolecular FRET of 1.5 uM YcgR biosensor oversaturated with excess c-di-GMP (2 mM), titrated with gradient concentrations of motor protein; 25 C, SEC buffer; FRET/CFP ratio fitted to a logistic equation. To be noted: both partners purified.
The target in assay [3] is T2, mYPet-YcgR-mCyPet (YcgR-biosensor), …. The description is as above. To be noted: remark: other sources report otherwise.
Assay [4] has the same target. The assay is described as follows: FRET or BRET; in vitro, intramolecular FRET of 1.5 uM YcgR biosensor (mYPet-YcgR-mCyPet) titrated with 0-500 uM motor protein, without c-di-GMP; 25 C, SEC buffer (20 mM HEPES pH 7.5, 150 mM NaCl, 10% glycerol); FRET/CFP ratio fitted to a logistic equation. To be noted: remark: other sources report otherwise. Background: BRET reads energy transfer from a luciferase to a nearby fluorophore.

For assay [5], the target named is B1. Described as above. To be noted: both partners purified.
Assay [6] deals with B2. Described as above. To be noted: both partners purified.
Assay [7] concerns the target B1. In words: FRET or BRET; in vitro, intramolecular FRET of 1.5 uM YcgR biosensor oversaturated with excess c-di-GMP (2 mM), titrated with gradient concentrations of motor protein; 25 C, SEC buffer; FRET/CFP ratio fitted to a logistic equation. To be noted: both partners purified.

Broadly, the Kd is the constant that tells how readily two partners part at equilibrium. Regarding B1, the Kd with FliG [1] worked out at 139 ± 15.6 µM; with FliG [2], 235 ± 35.4 µM.
Take B2: the dissociation constant Kd in the assay with FliG [1] came to 141 ± 9.8 µM; with FliG [2] it was 213 µM.
In the case of B3, the Kd with FliG [1] was 143 µM; with FliG [2], 107 µM.
For the molecule B4, the Kd came out at 35.9 µM in assay [3]; 123 µM in assay [4]; 151 ± 10.2 µM in assay [5]; 114 ± 11.3 µM in assay [6]; 46.1 ± 2.2 µM in assay [7].
